Reference: patent publication US20050209305A1

Biological target: Candida albicans cell surface hemoglobin receptor (Candida albicans)
Experiment: cell-based or functional assay

Substance: hemoglobin
- Renilla luciferase activity driven by the CaHMX1 promoter in C. albicans strain CAMP Ki-29, iron-sufficient medium, within 2.5 min of Hb addition: > 10 fold
